Laboratory results published in IntAct's records for PubMed 19851283.

B1: Transcription factor HFR1 (Arabidopsis thaliana (Mouse-ear cress)), Q9FE22 (parent)
chain: MSNNQAFMELGWRNDVGSLAVKDQGMMSERARSDEDRLINGLKWGYGYFDHDQTDNYLQIVPEIHKEVENAKEDLLVVVPDEHSETDDHHHIKDFSERSDHRFYLRNKHENPKKRRIQVLSSDDESEEFTREVPSVTRKGSKRRRRDEKMSNKMRKLQQLVPNCHKTDKVSVLDKTIEYMKNLQLQLQMMSTVGVNPYFLPATLGFGMHNHMLTAMASAHGLNPANHMMPSPLIPALNWPLPPFTNISFPHSSSQSLFLTTSSPASSPQSLHGLVPYFPSFLDFSSHAMRRL
partner: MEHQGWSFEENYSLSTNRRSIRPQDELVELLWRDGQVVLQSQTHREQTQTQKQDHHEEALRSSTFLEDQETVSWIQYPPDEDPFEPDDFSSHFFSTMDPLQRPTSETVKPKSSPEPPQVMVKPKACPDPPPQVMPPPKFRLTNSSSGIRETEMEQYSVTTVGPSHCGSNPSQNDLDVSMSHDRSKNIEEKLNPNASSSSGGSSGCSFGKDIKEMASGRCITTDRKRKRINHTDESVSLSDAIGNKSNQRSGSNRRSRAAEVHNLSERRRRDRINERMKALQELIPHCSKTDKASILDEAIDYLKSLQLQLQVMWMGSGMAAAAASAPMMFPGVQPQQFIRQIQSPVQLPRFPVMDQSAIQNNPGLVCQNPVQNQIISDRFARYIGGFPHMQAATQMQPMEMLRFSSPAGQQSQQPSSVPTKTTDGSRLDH
B2: Transcription factor HFR1 (Arabidopsis thaliana (Mouse-ear cress)), Q9FE22 (parent)
chain: B1 chain
partner: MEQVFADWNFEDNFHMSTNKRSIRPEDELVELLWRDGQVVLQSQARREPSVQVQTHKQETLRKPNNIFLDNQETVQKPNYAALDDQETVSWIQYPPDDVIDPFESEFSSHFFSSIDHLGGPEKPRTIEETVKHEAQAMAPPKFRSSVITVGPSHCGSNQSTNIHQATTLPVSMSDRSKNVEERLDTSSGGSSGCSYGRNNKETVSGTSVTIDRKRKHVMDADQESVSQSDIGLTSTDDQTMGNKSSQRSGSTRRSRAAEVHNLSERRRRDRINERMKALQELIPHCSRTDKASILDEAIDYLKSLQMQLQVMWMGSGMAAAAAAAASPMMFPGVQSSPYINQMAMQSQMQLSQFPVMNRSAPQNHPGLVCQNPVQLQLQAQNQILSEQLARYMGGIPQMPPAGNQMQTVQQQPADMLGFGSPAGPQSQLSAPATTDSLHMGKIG

Variants of: B1
Settings: with pif4_arath PIF4, Q8W2F3

Question: With MSNNQAFMELGWRNDVGSLAVKDQGMMSERARSDEDRLINGLKWGYGYFDHDQTDNYLQIVPEIHKEVENAKEDLLVVVPDEHSETDDHHHIKDFSERSDHRFYLRNKHENPKKRRIQVLSSDDESEEFTREVPSVTRKGSKRRRRDEKMSNKMRKLQQLVPNCHKTDKVSDLDKTIEYMKNLQLQLQMMSTVGVNPYFLPATLGFGMHNHMLTAMASAHGLNPANHMMPSPLIPALNWPLPPFTNISFPHSSSQSLFLTTSSPASSPQSLHGLVPYFPSFLDFSSHAMRRL [V172D] as the variant, how does the “effect of a mutation on the interaction” value read?
Answer: disrupting interaction

Question: How did the “effect of a mutation on the interaction” value turn out when MSNNQAFMELGWRNDVGSLAVKDQGMMSERARSDEDRLINGLKWGYGYFDHDQTDNYLQIVPEIHKEVENAKEDLLVVVPDEHSETDDHHHIKDFSERSDHRFYLRNKHENPKKRRIQVLSSDDESEEFTREVPSVTRKGSKRRRRDEKMSNKMRKLQQLVPNCHKTDKVSVEDKTIEYMKNLQLQLQMMSTVGVNPYFLPATLGFGMHNHMLTAMASAHGLNPANHMMPSPLIPALNWPLPPFTNISFPHSSSQSLFLTTSSPASSPQSLHGLVPYFPSFLDFSSHAMRRL [L173E] was run?
Answer: disrupting interaction

Variants of: B2
Settings: with pif5_arath PIF5, Q84LH8

Question: With MSNNQAFMELGWRNDVGSLAVKDQGMMSERARSDEDRLINGLKWGYGYFDHDQTDNYLQIVPEIHKEVENAKEDLLVVVPDEHSETDDHHHIKDFSERSDHRFYLRNKHENPKKRRIQVLSSDDESEEFTREVPSVTRKGSKRRRRDEKMSNKMRKLQQLVPNCHKTDKVSDLDKTIEYMKNLQLQLQMMSTVGVNPYFLPATLGFGMHNHMLTAMASAHGLNPANHMMPSPLIPALNWPLPPFTNISFPHSSSQSLFLTTSSPASSPQSLHGLVPYFPSFLDFSSHAMRRL [V172D] as the variant, how does the “effect of a mutation on the interaction” value read?
Answer: disrupting interaction

Question: For MSNNQAFMELGWRNDVGSLAVKDQGMMSERARSDEDRLINGLKWGYGYFDHDQTDNYLQIVPEIHKEVENAKEDLLVVVPDEHSETDDHHHIKDFSERSDHRFYLRNKHENPKKRRIQVLSSDDESEEFTREVPSVTRKGSKRRRRDEKMSNKMRKLQQLVPNCHKTDKVSVEDKTIEYMKNLQLQLQMMSTVGVNPYFLPATLGFGMHNHMLTAMASAHGLNPANHMMPSPLIPALNWPLPPFTNISFPHSSSQSLFLTTSSPASSPQSLHGLVPYFPSFLDFSSHAMRRL [L173E], which “effect of a mutation on the interaction” value is on record?
Answer: disrupting interaction
